The values that follow come from PMC11432991.

The data set deals with MexT-(His)6 (Pseudomonas poae PMA22). In words: EMSA. The settings on record: 10 mM MgCl2, 5.4-134.5 ng MexT, 1 nM probe, EMSA: 20 mM Tris-HCl pH 8, 150 mM KCl, 10 mM MgCl2, 10% glycerol, 2 mM beta-mercaptoethanol, 50 ug/mL BSA, 9 uL, 20 min room temperature, 5% PAGE in 0.5x TBE. For orientation: Mobility shift assays separate free from complexed probe on a gel.

Take Pa promoter probe: under “scale: fold of Pi affinity”, the binding signal worked out at 0.33. In turn, Pi promoter probe came in with a binding signal (fold higher affinity than Pa probe) of 3.
